{"source": "paper doi:10.1101/2023.02.22.529570", "about": "(bioRxiv, 2023)", "binders": {"B1": {"name": "GST-CDHR5 CD (domain or fragment)", "chain": "RLKCCCGKAPEPQPQGFDNQAFLPDHKANWAPVPSPTHDPKPAEAPMPAEPAPPGPASPGGAPEPPAAARAGGSPTAVRSILTKERRPEGGYKAVWFGEDIGTEADVVVLNAPTLDVDGASDSGSGDEGEGAGRGGGPYDAPGGDDSYI"}}, "biological_target": "T1, His-NEON-EBP50 PDZ1PDZ2 (human, UniProt O14745-1 1-298)", "T1 sequence": "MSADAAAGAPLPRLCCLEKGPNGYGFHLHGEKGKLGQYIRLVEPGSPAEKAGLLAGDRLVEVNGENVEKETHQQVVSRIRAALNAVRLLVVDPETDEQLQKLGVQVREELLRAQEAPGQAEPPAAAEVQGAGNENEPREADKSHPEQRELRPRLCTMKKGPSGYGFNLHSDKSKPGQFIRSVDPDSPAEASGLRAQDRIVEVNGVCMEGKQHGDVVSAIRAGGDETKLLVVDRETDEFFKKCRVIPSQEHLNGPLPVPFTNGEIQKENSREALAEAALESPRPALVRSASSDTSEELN", "assay": "pull-down"}
{"binder": "B1", "values": [{"measurement": "binding result", "result": "binds"}]}
